Laboratory results taken from patent US20200283521A1 (GRANULAR THERAPEUTICS, published 2020).

The binders below were run against T1, human C-KIT-Fc (human, UniProt P10721 26-524) (assay: direct ELISA;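 also: Plate-coated C-KIT-Fc (1 µg/ml) probed with antibodies for 1 hr, bound IgG detected via anti-human kappa-HRP and TMB, absorbance measured at 450 nm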).
T1 construct: also called biotinylated human C-KIT-Fc; not shown: Fc part not described

| binding result | Binder |
| --- | --- |
| binds | MH5.3 (antibody, IgG1, V domains shown, IgG1) VH: QVQLVQSGAEVKKPGASVKVSCKASGYTFTDHYMNWVRQAPGQGLEWMGRIYPGTGNTYYAQKFQGRVTMTRDTSTSTVYMELSSLRSEDTAVYYCARGVWYYDYWGQGTLVTVSS VL: DIQMTQSPSSLSASVGDRVTITCRASQGIRTNLAWFQQKPGKAPKSLIYAASSLQSGVPSRFSGSGSGTDFTLTISSLQPEDFATYYCQQYANYPRTFGGGTKVEIK |
| binds | MH5.31 (antibody, IgG1, V domains shown, IgG1) VH: QVQLVQSGAEVKKPGASVKVSCKASGYTFTNYYMNWVRQAPGQGLEWMGRIYPGAGNTYYAQKFQGRVTMTRDTSTSTVYMELSSLRSEDTAVYYCARGVWYFDTWGQGTLVTVSS VL: DIQMTQSPSSLSASVGDRVTITCRASQGIRTNLAWFQQKPGKAPKSLIYAASSLQSGVPSRFSGSGSGTDFTLTISSLQPEDFATYYCQQYANYPRTFGGGTKVEIK |
| binds | MH5.14 (antibody, IgG1, V domains shown, IgG1) VH: QVQLVQSGAEVKKPGASVKVSCKASGYTFTDHYMNWVRQAPGQGLEWMGRIYPASGNTYYAQKFQGRVTMTRDTSTSTVYMELSSLRSEDTAVYYCARGVWYFDEWGQGTLVTVSS VL: DIQMTQSPSSLSASVGDRVTITCRASQGIRTNLAWFQQKPGKAPKSLIYAASSLQSGVPSRFSGSGSGTDFTLTISSLQPEDFATYYCQQYANYPRTFGGGTKVEIK |
| binds | MH5.16 (antibody, IgG1, V domains shown, IgG1) VH: QVQLVQSGAEVKKPGASVKVSCKASGYTFTDFYMNWVRQAPGQGLEWMGRIYPGTGNTYYAQKFQGRVTMTRDTSTSTVYMELSSLRSEDTAVYYCARGVWYFDTWGQGTLVTVSS VL: DIQMTQSPSSLSASVGDRVTITCRASQGIRTNLAWFQQKPGKAPKSLIYAASSLQSGVPSRFSGSGSGTDFTLTISSLQPEDFATYYCQQYANYPRTFGGGTKVEIK |
| binds | MH5.9 (antibody, IgG1, V domains shown, IgG1) VH: QVQLVQSGAEVKKPGASVKVSCKASGYTFTDHYMNWVRQAPGQGLEWMGRIYPGAGNTYYAQKFQGRVTMTRDTSTSTVYMELSSLRSEDTAVYYCARGVWYFDTWGQGTLVTVSS VL: DIQMTQSPSSLSASVGDRVTITCRASQGIRTNLAWFQQKPGKAPKSLIYAASSLQSGVPSRFSGSGSGTDFTLTISSLQPEDFATYYCQQYANYPRTFGGGTKVEIK |
| binds | MH5.28 (antibody, IgG1, V domains shown, IgG1) VH: QVQLVQSGAEVKKPGASVKVSCKASGYTFTNYYMNWVRQAPGQGLEWMGRIYPGTGNTYYAQKFQGRVTMTRDTSTSTVYMELSSLRSEDTAVYYCARGVWYFDEWGQGTLVTVSS VL: DIQMTQSPSSLSASVGDRVTITCRASQGIRTNLAWFQQKPGKAPKSLIYAASSLQSGVPSRFSGSGSGTDFTLTISSLQPEDFATYYCQQYANYPRTFGGGTKVEIK |
| binds | MH5.21 (antibody, IgG1, V domains shown, IgG1) VH: QVQLVQSGAEVKKPGASVKVSCKASGYTFTDFYMNWVRQAPGQGLEWMGRIYPGAGNTYYAQKFQGRVTMTRDTSTSTVYMELSSLRSEDTAVYYCARGVWYFDEWGQGTLVTVSS VL: DIQMTQSPSSLSASVGDRVTITCRASQGIRTNLAWFQQKPGKAPKSLIYAASSLQSGVPSRFSGSGSGTDFTLTISSLQPEDFATYYCQQYANYPRTFGGGTKVEIK |
| binds | MH5.18 (antibody, IgG1, V domains shown, IgG1) VH: QVQLVQSGAEVKKPGASVKVSCKASGYTFTDFYMNWVRQAPGQGLEWMGRIYPGAGNTYYAQKFQGRVTMTRDTSTSTVYMELSSLRSEDTAVYYCARGVWYYDYWGQGTLVTVSS VL: DIQMTQSPSSLSASVGDRVTITCRASQGIRTNLAWFQQKPGKAPKSLIYAASSLQSGVPSRFSGSGSGTDFTLTISSLQPEDFATYYCQQYANYPRTFGGGTKVEIK |
| binds | MH5.17 (antibody, IgG1, V domains shown, IgG1) VH: QVQLVQSGAEVKKPGASVKVSCKASGYTFTDFYMNWVRQAPGQGLEWMGRIYPGTGNTYYAQKFQGRVTMTRDTSTSTVYMELSSLRSEDTAVYYCARGVWYFDEWGQGTLVTVSS VL: DIQMTQSPSSLSASVGDRVTITCRASQGIRTNLAWFQQKPGKAPKSLIYAASSLQSGVPSRFSGSGSGTDFTLTISSLQPEDFATYYCQQYANYPRTFGGGTKVEIK |
| binds | MH5.13 (antibody, IgG1, V domains shown, IgG1) VH: QVQLVQSGAEVKKPGASVKVSCKASGYTFTDHYMNWVRQAPGQGLEWMGRIYPASGNTYYAQKFQGRVTMTRDTSTSTVYMELSSLRSEDTAVYYCARGVWYFDTWGQGTLVTVSS VL: DIQMTQSPSSLSASVGDRVTITCRASQGIRTNLAWFQQKPGKAPKSLIYAASSLQSGVPSRFSGSGSGTDFTLTISSLQPEDFATYYCQQYANYPRTFGGGTKVEIK |
| binds | MH5.26 (antibody, IgG1, V domains shown, IgG1) VH: QVQLVQSGAEVKKPGASVKVSCKASGYTFTNYYMNWVRQAPGQGLEWMGRIYPGTGNTYYAQKFQGRVTMTRDTSTSTVYMELSSLRSEDTAVYYCARGVWYFDSWGQGTLVTVSS VL: DIQMTQSPSSLSASVGDRVTITCRASQGIRTNLAWFQQKPGKAPKSLIYAASSLQSGVPSRFSGSGSGTDFTLTISSLQPEDFATYYCQQYANYPRTFGGGTKVEIK |
| binds | MH5.5 (antibody, IgG1, V domains shown, IgG1) VH: QVQLVQSGAEVKKPGASVKVSCKASGYTFTDHYMNWVRQAPGQGLEWMGRIYPGTGNTYYAQKFQGRVTMTRDTSTSTVYMELSSLRSEDTAVYYCARGVWYFDTWGQGTLVTVSS VL: DIQMTQSPSSLSASVGDRVTITCRASQGIRTNLAWFQQKPGKAPKSLIYAASSLQSGVPSRFSGSGSGTDFTLTISSLQPEDFATYYCQQYANYPRTFGGGTKVEIK |
| binds | MH5.7 (antibody, IgG1, V domains shown, IgG1) VH: QVQLVQSGAEVKKPGASVKVSCKASGYTFTDHYMNWVRQAPGQGLEWMGRIYPGAGNTYYAQKFQGRVTMTRDTSTSTVYMELSSLRSEDTAVYYCARGVWYYDYWGQGTLVTVSS VL: DIQMTQSPSSLSASVGDRVTITCRASQGIRTNLAWFQQKPGKAPKSLIYAASSLQSGVPSRFSGSGSGTDFTLTISSLQPEDFATYYCQQYANYPRTFGGGTKVEIK |
| binds | MH5.20 (antibody, IgG1, V domains shown, IgG1) VH: QVQLVQSGAEVKKPGASVKVSCKASGYTFTDFYMNWVRQAPGQGLEWMGRIYPGAGNTYYAQKFQGRVTMTRDTSTSTVYMELSSLRSEDTAVYYCARGVWYFDTWGQGTLVTVSS VL: DIQMTQSPSSLSASVGDRVTITCRASQGIRTNLAWFQQKPGKAPKSLIYAASSLQSGVPSRFSGSGSGTDFTLTISSLQPEDFATYYCQQYANYPRTFGGGTKVEIK |
| binds | MH5.19 (antibody, IgG1, V domains shown, IgG1) VH: QVQLVQSGAEVKKPGASVKVSCKASGYTFTDFYMNWVRQAPGQGLEWMGRIYPGAGNTYYAQKFQGRVTMTRDTSTSTVYMELSSLRSEDTAVYYCARGVWYFDSWGQGTLVTVSS VL: DIQMTQSPSSLSASVGDRVTITCRASQGIRTNLAWFQQKPGKAPKSLIYAASSLQSGVPSRFSGSGSGTDFTLTISSLQPEDFATYYCQQYANYPRTFGGGTKVEIK |
| binds | MH5.29 (antibody, IgG1, V domains shown, IgG1) VH: QVQLVQSGAEVKKPGASVKVSCKASGYTFTNYYMNWVRQAPGQGLEWMGRIYPGAGNTYYAQKFQGRVTMTRDTSTSTVYMELSSLRSEDTAVYYCARGVWYYDYWGQGTLVTVSS VL: DIQMTQSPSSLSASVGDRVTITCRASQGIRTNLAWFQQKPGKAPKSLIYAASSLQSGVPSRFSGSGSGTDFTLTISSLQPEDFATYYCQQYANYPRTFGGGTKVEIK |
| binds | MH5.11 (antibody, IgG1, V domains shown, IgG1) VH: QVQLVQSGAEVKKPGASVKVSCKASGYTFTDHYMNWVRQAPGQGLEWMGRIYPASGNTYYAQKFQGRVTMTRDTSTSTVYMELSSLRSEDTAVYYCARGVWYYDYWGQGTLVTVSS VL: DIQMTQSPSSLSASVGDRVTITCRASQGIRTNLAWFQQKPGKAPKSLIYAASSLQSGVPSRFSGSGSGTDFTLTISSLQPEDFATYYCQQYANYPRTFGGGTKVEIK |
| binds | MH5.30 (antibody, IgG1, V domains shown, IgG1) VH: QVQLVQSGAEVKKPGASVKVSCKASGYTFTNYYMNWVRQAPGQGLEWMGRIYPGAGNTYYAQKFQGRVTMTRDTSTSTVYMELSSLRSEDTAVYYCARGVWYFDSWGQGTLVTVSS VL: DIQMTQSPSSLSASVGDRVTITCRASQGIRTNLAWFQQKPGKAPKSLIYAASSLQSGVPSRFSGSGSGTDFTLTISSLQPEDFATYYCQQYANYPRTFGGGTKVEIK |
| binds | MH5.12 (antibody, IgG1, V domains shown, IgG1) VH: QVQLVQSGAEVKKPGASVKVSCKASGYTFTDHYMNWVRQAPGQGLEWMGRIYPASGNTYYAQKFQGRVTMTRDTSTSTVYMELSSLRSEDTAVYYCARGVWYFDSWGQGTLVTVSS VL: DIQMTQSPSSLSASVGDRVTITCRASQGIRTNLAWFQQKPGKAPKSLIYAASSLQSGVPSRFSGSGSGTDFTLTISSLQPEDFATYYCQQYANYPRTFGGGTKVEIK |
| binds | MH5.25 (antibody, IgG1, V domains shown, IgG1) VH: QVQLVQSGAEVKKPGASVKVSCKASGYTFTDFYMNWVRQAPGQGLEWMGRIYPASGNTYYAQKFQGRVTMTRDTSTSTVYMELSSLRSEDTAVYYCARGVWYFDEWGQGTLVTVSS VL: DIQMTQSPSSLSASVGDRVTITCRASQGIRTNLAWFQQKPGKAPKSLIYAASSLQSGVPSRFSGSGSGTDFTLTISSLQPEDFATYYCQQYANYPRTFGGGTKVEIK |
| binds | MH5.8 (antibody, IgG1, V domains shown, IgG1) VH: QVQLVQSGAEVKKPGASVKVSCKASGYTFTDHYMNWVRQAPGQGLEWMGRIYPGAGNTYYAQKFQGRVTMTRDTSTSTVYMELSSLRSEDTAVYYCARGVWYFDSWGQGTLVTVSS VL: DIQMTQSPSSLSASVGDRVTITCRASQGIRTNLAWFQQKPGKAPKSLIYAASSLQSGVPSRFSGSGSGTDFTLTISSLQPEDFATYYCQQYANYPRTFGGGTKVEIK |
| binds | MH5.27 (antibody, IgG1, V domains shown, IgG1) VH: QVQLVQSGAEVKKPGASVKVSCKASGYTFTNYYMNWVRQAPGQGLEWMGRIYPGTGNTYYAQKFQGRVTMTRDTSTSTVYMELSSLRSEDTAVYYCARGVWYFDTWGQGTLVTVSS VL: DIQMTQSPSSLSASVGDRVTITCRASQGIRTNLAWFQQKPGKAPKSLIYAASSLQSGVPSRFSGSGSGTDFTLTISSLQPEDFATYYCQQYANYPRTFGGGTKVEIK |
